# Reference: article PMC9491710 (Science Advances, 2022)
# B1: K3DAK4 bimodule core (KS3-DH3-ACP-KS4 fragment of BBR47_39880, amino acids 532 to 2220) (domain or fragment, UniProt C0ZGQ6 532-2220, looked up)
# chain: SPSSVVRDVAIIGLSGRYPQAKNVDEFWNRLKEGKNCISEIPKDRWDWQSFFDEEKGKKESMYTKWGGFIDDMDKFDPLFFQISPKEAEEMDPQERLFLQEAYASIEDAGYTPTTLCESRKVGVFVGVMNGNYPTGATYWSIANRLSYLLNFQGPSVAVDTACSASLTAIHFALESLYSGTSECAIAGGVNLIVDPVHYMKLSALTMLSPSNQCKSFGDQADGFVDGEGVGAIVLKPLDKAIADGDHIYGVIKGSMMNAGGKTNGYTVPNPQAQAQLVADALQRANVHARTVSYLEAHGTGTELGDPIEVAGLTRAFEKDTQDKQFCALGSAKSNIGHCESAAGIAGVTKILLQLKHAQLVPSLHSRTLNPNIDFTKTPFVVQQELAEWRRPIVEINGTTNEYPRIAGISSFGAGGSNAHVIIEEYIPEEQKQSSLKITPQNPAIFVLSAKNAERLYEIVQQLLAFIQEHSLSDEHLADMAYTLQVGRVAMEERIAVIAGTMKELQQKLTAYVKGQEHIADLYRGQVNRNQEMLDILTSDDELEETIARWMERGKYSKLLDLWVKGLSIDWNKLYQEEQPGRISLPTYPFAKESYWTHARSVSSSTGVGVIHPFLHQNTSDFMEQRFSSMFTGQEFFLSDHVIKGQRVLPSAAYLEMARAAIQQATGGLDSERELEGLRFKNVVWTQPLAVGPEPVQAHIELYPEANGEIVFEIYSDSKQDRDQTTEIVHSQGSAVLCSIPDIPSFDLSVLQEQCSLRTLSAEQCYDAFKKMGVDYGPAHRGIEQILIGQEQVLAKLSLPSSVVKTQGQFGLHPSLLDAALQSSLGLMMATSDFSLILPFALEEMVIVGDCSSSMWALIRYREGSKAGDRVEKFDIDLCDENGNVQVRMKGFSTRKIANVSVRSEVEVPKASVPLEEEKAIDSSSLMEQATPYFKKLLSSVIKLPANKMEADASLEKYGVDSIVAMQMTKELEKQFGSLPKTLFFEYQTIKELTGYFLENYRENLMHILGMRENAEASLTQESEATMVDEVKAQTERRSKKRKSQRFASLRMETQPPKGALDIAIIGISGRYPQARNIHDFWKNLRDGKDCITEIPKDRWDHSLYFDEAKDKLGKSYSKWGGFIDGVDQFDPLFFHISPREAELMDPQERLFLQCVYETIEDAGYTRETLGKHEGLGGNVGVYVGVMYEEYQLYASAEQALGRALAIAGSPASIANRVSYFCNFHGPSMAVDTMCSSSLTGIHLACHSLQRGECEVAIAGGVNVSIHPNKYLYLSQGKFASSKGRCESFGEGGDGYVPGEGVGAVLLKPLARAIADGDHIYGVIKGSAINHGGKTNGYTVPNPHSQSRVIRRAFEEAGIHPRTVSYIEAHGTGTSLGDPIEIAGLTKTFQEYTKENQFCAIGSAKSNIGHGESAAGIAGLTKILLQMKYKRLVPSLHSRTLNPNIDFSKTPFVVQQELAEWKRPVIEIDGVTREYARIAGISSFGAGGANAHLVIEEYIEAEHRPPSSISSKNPAVIVLSAKNKDRLREQVQRLLSAIREQVLTDNDLAEIAYTLQVGREAMEERFAVIVKSISELEAKLTYYLKDEADSPDLFTGQVKRNKETMDVFAADEDLQQAIDTWITKGKYAKILQMWVQGLIFDWNKLYGDTKPRRISLPAYPFARERYWLPKVESQAIGLTAGEPAYLHPL
# B2: isolated DH3 domain (amino acids 1135 to 1434 of BBR47_39880) (domain or fragment, UniProt C0ZGQ6 1135-1434, looked up)
# chain: SSTGVGVIHPFLHQNTSDFMEQRFSSMFTGQEFFLSDHVIKGQRVLPSAAYLEMARAAIQQATGGLDSERELEGLRFKNVVWTQPLAVGPEPVQAHIELYPEANGEIVFEIYSDSKQDRDQTTEIVHSQGSAVLCSIPDIPSFDLSVLQEQCSLRTLSAEQCYDAFKKMGVDYGPAHRGIEQILIGQEQVLAKLSLPSSVVKTQGQFGLHPSLLDAALQSSLGLMMATSDFSLILPFALEEMVIVGDCSSSMWALIRYREGSKAGDRVEKFDIDLCDENGNVQVRMKGFSTRKIANVSVR
# B3: isolated KS3 domain (amino acids 532 to 1135 of BBR47_39880) (domain or fragment, UniProt C0ZGQ6 532-1135, looked up)
# chain: SPSSVVRDVAIIGLSGRYPQAKNVDEFWNRLKEGKNCISEIPKDRWDWQSFFDEEKGKKESMYTKWGGFIDDMDKFDPLFFQISPKEAEEMDPQERLFLQEAYASIEDAGYTPTTLCESRKVGVFVGVMNGNYPTGATYWSIANRLSYLLNFQGPSVAVDTACSASLTAIHFALESLYSGTSECAIAGGVNLIVDPVHYMKLSALTMLSPSNQCKSFGDQADGFVDGEGVGAIVLKPLDKAIADGDHIYGVIKGSMMNAGGKTNGYTVPNPQAQAQLVADALQRANVHARTVSYLEAHGTGTELGDPIEVAGLTRAFEKDTQDKQFCALGSAKSNIGHCESAAGIAGVTKILLQLKHAQLVPSLHSRTLNPNIDFTKTPFVVQQELAEWRRPIVEINGTTNEYPRIAGISSFGAGGSNAHVIIEEYIPEEQKQSSLKITPQNPAIFVLSAKNAERLYEIVQQLLAFIQEHSLSDEHLADMAYTLQVGRVAMEERIAVIAGTMKELQQKLTAYVKGQEHIADLYRGQVNRNQEMLDILTSDDELEETIARWMERGKYSKLLDLWVKGLSIDWNKLYQEEQPGRISLPTYPFAKESYWTHARSVSS
# B4: isolated KS4 domain (amino acids 1587 to 2220 of BBR47_39880) (domain or fragment, UniProt C0ZGQ6 1587-2220, looked up)
# chain: PPKGALDIAIIGISGRYPQARNIHDFWKNLRDGKDCITEIPKDRWDHSLYFDEAKDKLGKSYSKWGGFIDGVDQFDPLFFHISPREAELMDPQERLFLQCVYETIEDAGYTRETLGKHEGLGGNVGVYVGVMYEEYQLYASAEQALGRALAIAGSPASIANRVSYFCNFHGPSMAVDTMCSSSLTGIHLACHSLQRGECEVAIAGGVNVSIHPNKYLYLSQGKFASSKGRCESFGEGGDGYVPGEGVGAVLLKPLARAIADGDHIYGVIKGSAINHGGKTNGYTVPNPHSQSRVIRRAFEEAGIHPRTVSYIEAHGTGTSLGDPIEIAGLTKTFQEYTKENQFCAIGSAKSNIGHGESAAGIAGLTKILLQMKYKRLVPSLHSRTLNPNIDFSKTPFVVQQELAEWKRPVIEIDGVTREYARIAGISSFGAGGANAHLVIEEYIEAEHRPPSSISSKNPAVIVLSAKNKDRLREQVQRLLSAIREQVLTDNDLAEIAYTLQVGREAMEERFAVIVKSISELEAKLTYYLKDEADSPDLFTGQVKRNKETMDVFAADEDLQQAIDTWITKGKYAKILQMWVQGLIFDWNKLYGDTKPRRISLPAYPFARERYWLPKVESQAIGLTAGEPAYLHPL
# Tests used:
# cryo-EM structure = target: the molecule itself; assay: cryo-EM structure
# crystal structure [1] = target: the molecule itself; assay: crystal structure
# crystal structure [2] = target: the molecule itself; assay: crystal structure; remark: listed apart in the source
# crystal structure [3] = target: the molecule itself; assay: crystal structure; remark: listed apart in the source
protein,measurement,setting,value
B1,stoichiometry N,cryo-EM structure,2
B2,stoichiometry N,crystal structure [1],2
B3,stoichiometry N,crystal structure [2],2
B4,stoichiometry N,crystal structure [3],2
